# Patent US20110250613A1, “Arrayed Multiple Ubiquitin Binding Domains as Linkage-specific Polyubiquitin Affinity Reagents” (THE JOHNS HOPKINS UNIVERSITY, priority 2009, published 2011)
# Legend:
# [1] = molecular target: K48-linked tetraubiquitin (UniProt P0CG48); experiment: fluorescence anisotropy
# [2] = molecular target: K63-linked tetraubiquitin (UniProt P0CG48); experiment: fluorescence anisotropy
# [3] = molecular target: K63-linked tetraubiquitin (UniProt P0CG48); experiment: fluorescence anisotropy, solution state
# [4] = molecular target: K63-linked tetraubiquitin (UniProt P0CG48); experiment: SPR, captured on anti-GST antibody
# K48-linked diubiquitin [5] = molecular target: K48-linked diubiquitin (UniProt P0CG48); experiment: SPR, GST-UBA captured on anti-GST antibody
# K63-linked diubiquitin [6] = molecular target: K63-linked diubiquitin (UniProt P0CG48); experiment: fluorescence anisotropy
# K48-linked diubiquitin [7] = molecular target: K48-linked diubiquitin (UniProt P0CG48); experiment: fluorescence anisotropy
# K48-linked diubiquitin [8] = molecular target: K48-linked diubiquitin (UniProt P0CG48); experiment: fluorescence anisotropy; remark: listed apart in the source
# [9] = molecular target: K48-linked tetraubiquitin (UniProt P0CG48); experiment: SPR, GST-UBA captured on anti-GST antibody
# [10] = molecular target: K63-linked tetraubiquitin (UniProt P0CG48); experiment: SPR, GST-UBA captured on anti-GST antibody
# K63-linked diubiquitin [11] = molecular target: K63-linked diubiquitin (UniProt P0CG48); experiment: SPR, GST-UBA captured on anti-GST antibody
# [12] = molecular target: K63-linked tetraubiquitin (UniProt P0CG48); experiment: SPR Kd of GST-UBA1 against fluorescence anisotropy Kd of the free domain
# [13] = molecular target: K48-linked tetraubiquitin (UniProt P0CG48); experiment: fluorescence anisotropy; remark: listed apart in the source
# [14] = molecular target: K63-linked tetraubiquitin (UniProt P0CG48); experiment: fluorescence anisotropy; remark: listed apart in the source
# [15] = molecular target: K48-linked tetraubiquitin (UniProt P0CG48); experiment: fluorescence anisotropy, ratio of Kd
# [16] = molecular target: K48-linked tetraubiquitin (UniProt P0CG48); experiment: fluorescence anisotropy competition with fluorescent Vps27 7aa linker peptide
# [17] = molecular target: K63-linked tetraubiquitin (UniProt P0CG48); experiment: as above
# K48-linked diubiquitin [18] = molecular target: K48-linked diubiquitin (UniProt P0CG48); experiment: fluorescence anisotropy, against K63-Ub2
# K63-linked diubiquitin [19] = molecular target: K63-linked diubiquitin (UniProt P0CG48); experiment: fluorescence anisotropy; remark: listed apart in the source
# [20] = molecular target: K48-linked tetraubiquitin (UniProt P0CG48); experiment: fluorescence anisotropy, against K63-Ub4
# K63-linked diubiquitin [21] = molecular target: K63-linked diubiquitin (UniProt P0CG48); experiment: fluorescence anisotropy, divalent-divalent complex fit, non-avid mode
# K63-linked diubiquitin [22] = molecular target: K63-linked diubiquitin (UniProt P0CG48); experiment: fluorescence anisotropy to high K63-Ub2 concentrations, divalent-divalent complex fit, avid mode
# K63-linked diubiquitin [23] = molecular target: K63-linked diubiquitin (UniProt P0CG48); experiment: fluorescence anisotropy; Rap80 tUIM with 9-alanine linker
# K63-linked diubiquitin [24] = molecular target: K63-linked diubiquitin (UniProt P0CG48); experiment: fluorescence anisotropy competition against the fluorescent Rap80 tUIM peptide at saturating K63-Ub2
# K63-linked diubiquitin [25] = molecular target: K63-linked diubiquitin (UniProt P0CG48); experiment: fluorescence anisotropy, alanine linker series
# K63-linked diubiquitin [26] = molecular target: K63-linked diubiquitin (UniProt P0CG48); experiment: ITC, single-site model; unit mM, evidently µM
# K63-linked diubiquitin [27] = molecular target: K63-linked diubiquitin (UniProt P0CG48); experiment: ITC, single-site model
# [28] = molecular target: K48-linked tetraubiquitin (UniProt P0CG48); experiment: fluorescence anisotropy, ratio of Kd for Ub4 chains
substance,measurement,setting,value
"Rap80 (1-233), fluorescein-labelled (from UniProt Q96RL1 1-233)",Kd,[1],23 µM
same,Kd,[2],3.4 µM
same,fold preference over K48-Ub4,[3],7 fold
GST-fmm (functionally monomeric mixture; GST-His/GST-Ede1 heterodimer) (from UniProt P34216 1336-1381),Kd,[4],23 µM
GST-Ubc1 UBA (from UniProt P21734 167-215),Kd,K48-linked diubiquitin [5],460 µM
Rap80_DLKAAIQ (peptide),Kd,K63-linked diubiquitin [6],10 µM
same,Kd,K48-linked diubiquitin [7],129 µM
"Rap80 UIM2 peptide, fluorescein-labelled",Kd,K48-linked diubiquitin [8],200 µM
Rap80_ARLEEKV (peptide),Kd,K63-linked diubiquitin [6],17 µM
same,Kd,K48-linked diubiquitin [7],230 µM
GST-hHR23A UBA1,Kd,[9],13 µM
same,Kd,[10],4.7 µM
same,Kd,K63-linked diubiquitin [11],26 µM
same,Kd,K48-linked diubiquitin [5],36 µM
same,fold tighter than the free domain,[12],> 6 fold
Ataxin3 (wt) tandem UIM peptide,Kd,[13],3.3 µM
same,Kd,[14],15 µM
same,Kd,K63-linked diubiquitin [6],91 µM
same,Kd,K48-linked diubiquitin [7],100 µM
same,fold preference over K63-Ub4,[15],5 fold
Rap80_S101E (peptide),Kd,K63-linked diubiquitin [6],16 µM
same,Kd,K48-linked diubiquitin [7],170 µM
Vps27 (wt) tandem UIM peptide,Kd,[16],31 µM
same,Kd,[17],29 µM
same,Kd,K63-linked diubiquitin [6],67 µM
same,Kd,K48-linked diubiquitin [7],211 µM
Ede1_rhodamine (from UniProt P34216 1338-1381),fold preference for K48-polyUb,K48-linked diubiquitin [18],< 2 fold
same,Kd,[1],31 µM
same,Kd,[2],54 µM
same,Kd,K63-linked diubiquitin [19],120 µM
same,Kd,K48-linked diubiquitin [8],86 µM
same,fold preference for K48-polyUb,[20],< 2 fold
"Rap80 tandem UIMs (wt) peptide, His6-tagged, fluorescein-labelled",Kd,K63-linked diubiquitin [21],1000 µM
same,Kd,[1],15 µM
same,Kd,[2],3.8 µM
same,Kd,K63-linked diubiquitin [22],22 µM
same,Kd,[13],14 µM
same,Kd,[14],3.6 µM
same,Kd,K63-linked diubiquitin [6],21.6 µM
Rap80 tUIM with 9-alanine linker,Kd,K63-linked diubiquitin [23],92 µM
Rap80_S101A (peptide),Kd,K63-linked diubiquitin [6],11 µM
same,Kd,K48-linked diubiquitin [7],152 µM
unlabeled Rap80 tUIM peptide,Ki,K63-linked diubiquitin [24],24 µM
Rap80_nolinker (peptide),Kd,K63-linked diubiquitin [6],47 µM
Rap80 tUIM with 9-alanine linker (peptide),fold weaker than 7 A,K63-linked diubiquitin [25],> 25 fold
Rap80 tUIM peptide with a C-terminal 3-amino acid extension (DWS),Kd,K63-linked diubiquitin [26],17600 µM
same,n (sites),K63-linked diubiquitin [27],0.97 sites
"Ubc1 UBA, His-tagged, Alexa-fluor 546 labelled",Kd,[1],37 µM
same,Kd,[2],170 µM
fluorescein-labeled hHR23A-UBA1 domain (from UniProt P54725 159-201),Kd,[1],9 µM
same,Kd,[2],30 µM
Rap80 ataxin linker (peptide),fold K48 preference,[28],6 fold
same,Kd,[13],3.4 µM
same,Kd,[14],20 µM
same,Kd,K63-linked diubiquitin [6],115 µM
same,Kd,K48-linked diubiquitin [7],143 µM
ataxin-3 Rap80 linker (peptide),Kd,[13],7.8 µM
same,Kd,[14],11 µM
same,Kd,K63-linked diubiquitin [6],60 µM
same,Kd,K48-linked diubiquitin [7],160 µM
"Ddi1 UBA, fluorescein-labelled",Kd,[1],50 µM
same,Kd,[2],92 µM
same,fold difference in Kd for K63- and K48-Ub4,[15],< 2 fold
"Rap80 UIM1 peptide, fluorescein-labelled",Kd,K48-linked diubiquitin [8],280 µM
"Dsk2 UBA, fluorescein-labelled (from UniProt P48510 327-371)",Kd,[1],1.4 µM
same,Kd,[2],2.2 µM
same,fold difference in Kd for K63- and K48-Ub4,[15],< 2 fold
Rap80 tUIM peptide with no 6xHis-tag and fluorescein on a C-terminal lysine side chain (expressed protein ligation),Kd,K63-linked diubiquitin [19],19 µM
GST-Ede1 UBA (from UniProt P34216 1336-1381),Kd,[9],25 µM
same,Kd,[10],6 µM
same,Kd,K63-linked diubiquitin [11],48 µM
same,Kd,K48-linked diubiquitin [5],110 µM
GST-DRM2 UBA1 (from UniProt Q9M548 106-154),Kd,K63-linked diubiquitin [11],89 µM
same,Kd,K48-linked diubiquitin [5],140 µM
